Key:
Conditions in all cases: one partner purified
[1] = target: T1, Human CC chemokine receptor type 5 (CCR5), C-terminally 6 × His-tagged (human, UniProt P51681 1-352); assay: quartz crystal microbalance (QCM); CCR5 made with GroEL alone added to the cell-free reaction; supernatant diluted 20 times and immobilised on a Q-Sense His-tag Capturing Sensor; CCL11 flowed over; 25 °C; 25 mM HEPES, 0.12 M NaCl, 0.2% Brij35, pH 7.6; 1:1 binding model
T1 construct: CC chemokine receptor type 5 (CCR5), human; 352 amino acids, 40.5 kDa as printed; cloned in pIVEX2.3d; The same construct was made with no chaperonin, with GroEL-GroES (0.04:0.08 uM) or with GroEL alone (0.04 uM) added to the cell-free reaction; these three samples are kept apart as assays; For one gel, BODIPY-labelled lysines were incorporated during translation; also called CCR5 receptor; …
T1 sequence (P51681 whole entry): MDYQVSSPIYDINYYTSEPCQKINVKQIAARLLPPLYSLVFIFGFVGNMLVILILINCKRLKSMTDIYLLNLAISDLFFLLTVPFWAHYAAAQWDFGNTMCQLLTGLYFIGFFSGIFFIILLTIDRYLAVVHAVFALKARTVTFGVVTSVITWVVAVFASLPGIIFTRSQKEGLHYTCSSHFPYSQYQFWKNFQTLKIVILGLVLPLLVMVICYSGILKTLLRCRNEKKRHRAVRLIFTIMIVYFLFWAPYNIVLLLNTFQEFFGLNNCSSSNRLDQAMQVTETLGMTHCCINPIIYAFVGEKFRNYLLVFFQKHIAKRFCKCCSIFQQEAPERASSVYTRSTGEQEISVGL

[2] = target: T1, Human CC chemokine receptor type 5 …; assay: quartz crystal microbalance (QCM); CCR5 made with GroEL-GroES added to the cell-free reaction; supernatant diluted 20 times and immobilised on a Q-Sense His-tag Capturing Sensor; CCL11 flowed over; 25 °C; 25 mM HEPES, 0.12 M NaCl, 0.2% Brij35, pH 7.6; 1:1 binding model
[3] = target: T1, Human CC chemokine receptor type 5 …; assay: quartz crystal microbalance (QCM); CCR5 made without added chaperonin; supernatant diluted 20 times and immobilised on a Q-Sense His-tag Capturing Sensor; CCL11 flowed over; 25 °C; 25 mM HEPES, 0.12 M NaCl, 0.2% Brij35, pH 7.6; 1:1 binding model

B1: eotaxin (CCL11) (ligand)
chain: not shown
notes: eotaxin (CCL11)
In the case of B1, the Kd [1] is reported as 55 nM, the koff [1] is reported as 0.00025 s⁻¹ and the kon [1] is reported as 4600 M⁻¹ s⁻¹. It also gave a Kd [2] of 44 nM, a koff [2] of 0.0002 s⁻¹ and a kon [2] of 4500 M⁻¹ s⁻¹. The Kd [3] was 97 nM, the koff [3] was 0.00046 s⁻¹ and the kon [3] was 4700 M⁻¹ s⁻¹.
